# According to patent US20200277392A1 (Hoffmann-La Roche, published 2020):
# T1: human OX40 on cells (human, UniProt P43489 29-277)
# T1 construct: also called CD134; OX40+ Cells
# T1 sequence: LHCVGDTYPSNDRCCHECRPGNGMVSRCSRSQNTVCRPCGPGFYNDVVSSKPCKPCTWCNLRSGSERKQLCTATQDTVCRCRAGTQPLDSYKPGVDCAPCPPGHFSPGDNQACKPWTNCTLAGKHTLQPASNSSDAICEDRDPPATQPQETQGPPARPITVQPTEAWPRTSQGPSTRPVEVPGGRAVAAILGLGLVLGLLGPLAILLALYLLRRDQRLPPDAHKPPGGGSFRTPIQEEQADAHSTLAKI
# T2: cynomolgus TnC with C-terminal Avi- and His-tags (cynomolgus, biotinylated at the C-terminal Avi-tag)
# T2 construct: also called cynoTnC; cyno TnC
# T2 chain: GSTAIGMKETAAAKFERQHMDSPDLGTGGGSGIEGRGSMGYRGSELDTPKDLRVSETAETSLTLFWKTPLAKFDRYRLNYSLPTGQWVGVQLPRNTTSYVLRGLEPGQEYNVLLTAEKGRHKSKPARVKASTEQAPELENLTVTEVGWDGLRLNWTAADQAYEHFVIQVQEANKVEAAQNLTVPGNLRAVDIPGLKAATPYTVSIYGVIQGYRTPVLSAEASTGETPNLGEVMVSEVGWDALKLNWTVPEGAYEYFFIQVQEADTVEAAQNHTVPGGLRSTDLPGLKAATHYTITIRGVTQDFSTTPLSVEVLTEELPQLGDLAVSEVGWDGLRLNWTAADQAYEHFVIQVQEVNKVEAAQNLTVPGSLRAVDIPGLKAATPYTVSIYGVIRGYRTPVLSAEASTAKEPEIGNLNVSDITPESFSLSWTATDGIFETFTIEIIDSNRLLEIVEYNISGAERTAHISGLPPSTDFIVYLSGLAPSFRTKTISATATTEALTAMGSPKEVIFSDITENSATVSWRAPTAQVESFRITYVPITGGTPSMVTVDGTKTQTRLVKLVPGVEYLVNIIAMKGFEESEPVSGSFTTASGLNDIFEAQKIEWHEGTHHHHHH
# T3: mouse TnC with C-terminal Avi- and His-tags (mouse, biotinylated at the C-terminal Avi-tag)
# T3 construct: the N-terminal fn5 and C-terminal fn6 parts look like the human ones; also called muTnC; murine TnC
# T3 chain: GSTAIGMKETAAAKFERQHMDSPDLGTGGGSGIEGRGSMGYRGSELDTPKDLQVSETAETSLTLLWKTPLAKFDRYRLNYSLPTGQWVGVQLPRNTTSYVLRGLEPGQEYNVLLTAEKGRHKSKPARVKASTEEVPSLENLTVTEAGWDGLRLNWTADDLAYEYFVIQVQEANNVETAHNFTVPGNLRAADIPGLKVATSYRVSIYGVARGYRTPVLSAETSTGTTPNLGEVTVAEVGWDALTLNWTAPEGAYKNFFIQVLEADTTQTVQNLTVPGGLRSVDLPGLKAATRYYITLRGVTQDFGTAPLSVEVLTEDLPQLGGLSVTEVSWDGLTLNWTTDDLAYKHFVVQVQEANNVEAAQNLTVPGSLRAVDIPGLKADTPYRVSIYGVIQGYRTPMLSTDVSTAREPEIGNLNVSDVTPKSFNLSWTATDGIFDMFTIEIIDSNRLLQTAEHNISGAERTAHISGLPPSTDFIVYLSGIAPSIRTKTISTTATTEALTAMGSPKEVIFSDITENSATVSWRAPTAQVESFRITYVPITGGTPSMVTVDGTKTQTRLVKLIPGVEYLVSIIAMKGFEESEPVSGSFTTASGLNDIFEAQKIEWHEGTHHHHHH
# T4: human TnC with C-terminal Avi- and His-tags (human, UniProt P24821 984-1798, biotinylated at the C-terminal Avi-tag)
# T4 construct: also called huTnC; biotinylated human TnC
# T4 sequence: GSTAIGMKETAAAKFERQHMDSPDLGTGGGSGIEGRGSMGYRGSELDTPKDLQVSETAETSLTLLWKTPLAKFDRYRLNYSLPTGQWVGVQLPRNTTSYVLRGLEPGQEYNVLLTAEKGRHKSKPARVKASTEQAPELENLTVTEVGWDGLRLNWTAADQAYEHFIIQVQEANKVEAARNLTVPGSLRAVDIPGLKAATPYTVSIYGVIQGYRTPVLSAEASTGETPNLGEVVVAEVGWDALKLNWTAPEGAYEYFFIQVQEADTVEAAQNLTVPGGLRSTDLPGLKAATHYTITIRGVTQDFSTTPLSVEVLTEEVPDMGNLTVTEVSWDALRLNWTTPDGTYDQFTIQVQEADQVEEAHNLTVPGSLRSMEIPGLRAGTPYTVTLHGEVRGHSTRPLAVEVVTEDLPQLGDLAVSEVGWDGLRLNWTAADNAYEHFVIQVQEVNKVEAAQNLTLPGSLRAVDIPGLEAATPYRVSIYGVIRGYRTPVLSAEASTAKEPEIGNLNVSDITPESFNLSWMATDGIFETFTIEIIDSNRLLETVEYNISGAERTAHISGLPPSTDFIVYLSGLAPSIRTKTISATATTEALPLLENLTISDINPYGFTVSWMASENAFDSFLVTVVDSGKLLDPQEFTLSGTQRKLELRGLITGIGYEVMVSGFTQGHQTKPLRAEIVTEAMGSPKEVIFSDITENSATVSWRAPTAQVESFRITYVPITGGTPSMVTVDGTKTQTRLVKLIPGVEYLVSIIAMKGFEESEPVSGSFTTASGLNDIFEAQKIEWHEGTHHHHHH
# How the values were obtained:
# [1] = target: T1, human OX40 on cells; assay: flow cytometry on OX40+ cells (activated human PBMC)
# Method: (§1) For labeling, cells were harvested, washed with pre-warmed (37° C.) DPBS and adjusted to a cell density of 1×10⁷ cells/mL in DPBS. eFluor670 cell proliferation dye (eBioscience, Cat.-No. 65-0840-85) was added to the suspension of naïve human PBMC at a final concentration of […] and a final cell density of 0.5×10⁷ cells/mL in DPBS. Cells were then incubated for 10 min at room temperature in the dark. To stop the labeling reaction, 4 mL heat inactivated FBS was added and cells were washed three times with T cell medium. A 2:1 mixture of 1×10⁵ resting eFluor670 labeled human PBMC and 0.5×10⁵ unlabeled activated human PBMC were then added to each well of round-bottomed suspension cell 96-well plates (Greiner bio-one, cellstar, Cat. No. 650185).
# (§2) Cells were stained for 120 minutes at 4° C. in the dark in 50 μL/well 4° C. FACS buffer containing different amounts of the indicated antigen binding molecules. After three washes with 4° C. FACS buffer, cells were stained for 45 minutes at 4° C. in the dark in 25 μL/well 4° C. FACS buffer containing a mixture of fluorescently labeled anti-human CD4 (clone RPA-T4, mouse IgG1 k, BioLegend, Cat.-No. 300532), anti-human CD8 (clone RPa-T8, mouse IgGlk, BioLegend, Cat.-No. 3010441) and Fluorescein isothiocyanate (FITC)-conjugated AffiniPure anti-human IgG Fcγ-fragment-specific goat IgG F(ab′)₂ fragment (Jackson ImmunoResearch, Cat.-No. 109-096-098).
# Cells were then resuspended in […] FACS-buffer containing 0.2 μg/mL DAPI (Santa Cruz Biotec, Cat. No. Sc-3598) and acquired the same day using 5-laser LSR-Fortessa (BD Bioscience with DIVA software).
# [2] = target: T2, cynomolgus TnC with C-terminal Avi- and …; assay: SPR Biacore T200, biotinylated TnC on SA chip, bispecific as analyte, 1:1 fit, apparent KD (bivalent binding)
# Method: (§3) The capacity of the bispecific constructs to bind human, murine and cynomolgus TnC was analysed by surface plasmon resonance (SPR). All SPR experiments were performed on a Biacore T200 at 25° C. with HBS-EP as running buffer (0.01 M HEPES pH 7.4, 0.15 M NaCl, 3 mM EDTA, 0.005% Surfactant P20, Biacore, Freiburg/Germany).
# (§4) Biotinylated human, murine or cynomolgus TnC molecules were immobilised on a SA chip to reach an immobilization level of 10 resonance units (RU).
# (§5) Following immobilisation, the bispecific molecules or control molecules were immediately passed over the chip surface at concentrations ranging from 0.05-50 nM, at a flow rate of 30 μL/minute for 120 seconds and a dissociation phase of 180 seconds. The surface was regenerated using 10 mM glycine pH2.1. Bulk refractive index differences were corrected for by subtracting the response obtained in a reference flow cell, where no TnC was immobilized. Affinity/Avidity was determined under these experimental conditions using the Langmuir 1:1 curve fitting. For bivalent binding the same 1:1 fitting was used leading to an apparent KD value.
# [3] = target: T3, mouse TnC with C-terminal Avi- and …; assay: as above
# Method: as §3, §4, §5
# [4] = target: T1, human OX40 on cells; assay: flow cytometry on activated human PBMC, gated on CD8+ T cells; FITC anti-human IgG secondary; MFI baseline corrected
# Method: as §1
# as §2, with “109-096-098). […]” for “109-096-098).”
# [5] = target: T5, human OX40 Fc(kih), monomeric Fc-linked human OX40 antigen ECD (human, UniProt P0DOX5 223-449 = IgG part); assay: SPR (Biacore T200, 25 °C): bispecific held on immobilised human TnC; human OX40 Fc(kih) at 250 nM injected for 90 s as analyte 2
# T5 construct: Heterodimer of one OX40 ECD (aa 29-214)-AcTEV-Fc knob-Avi chain and one Fc hole chain; Biotinylated at the Avi tag for phage selection and ELISA; also called recombinant OX40 Fc (kih) receptor; biotinylated human OX40
# Method: All SPR experiments were performed on a Biacore T200 at 25° C. with HBS-EP as running buffer (0.01 M HEPES pH 7.4, 0.15 M NaCl, 3 mM EDTA, 0.005% Surfactant P20, Biacore, Freiburg/Germany).
# Biotinylated human TnC was directly coupled to a flow cell of a streptavidin (SA) sensor chip. Immobilization levels up to 1000 resonance units (RU) were used.
# Bulk refractive index differences were corrected for by subtracting the response obtained in a reference flow cell, where no protein was immobilized.
# [6] = target: T4, human TnC with C-terminal Avi- and …; assay: SPR Biacore T200, biotinylated TnC on SA chip, bispecific as analyte, 1:1 fit, apparent KD (bivalent binding)
# Method: as §3, §4, §5
EC50 [1],Kd [2],Kd [3],EC50 (read off the curve) [4],binding result [5],Kd [6],Binder
0.08 nM,0.4 nM,0.65 nM,~0.1 nM,binds,,"49B4/TnC 18D4 P329GLALA 4 + 2 (ID8035) (bispecific antibody, human IgG1, kappa, L234A L235A, huIgG1 P329G LALA; also called 49B4/18D4 4 + 2; 4 + 2 TnC (18D4)) heavy: not shown light 1: DIQMTQSPSTLSASVGDRVTITCRASQSISSWLAWYQQKPGKAPKLLIYDASSLESGVPSRFSGSGSGTEFTLTISSLQPDDFATYYCQQYSSQPYTFGQGTKVEIKRTVAAPSVFIFPPSDRKLKSGTASVVCLLNNFYPREAKVQWKVDNALQSGNSQESVTEQDSKDSTYSLSSTLTLSKADYEKHKVYACEVTHQGLSSPVTKSFNRGEC light 2: QVQLVQSGAEVKKPGSSVKVSCKASGGTFSSYAISWVRQAPGQGLEWMGGIIPIFGTANYAQKFQGRVTITADKSTSTAYMELSSLRSEDTAVYYCAKGNFYGGLDYWGQGTTVTVSSASVAAPSVFIFPPSDEQLKSGTASVVCLLNNFYPREAKVQWKVDNALQSGNSQESVTEQDSKDSTYSLSSTLTLSKADYEKHKVYACEVTHQGLSSPVTKSFNRGEC"
6.59 nM,0.28 nM,0.3 nM,,binds,,"49B4/TnC 18D4 P329GLALA 2 + 2 (ID7216) (bispecific antibody, human IgG1, kappa, L234A L235A, huIgG1 P329G LALA; 49B4 VHCH1-Fc-(G4S)4-18D4 VHCL heavy chain, 49B4 VLCL light chain, 18D4 VLCH1 crossed light chain; also called 2 + 2 (49B4/18D4); 49B4/18D4 2 + 2) heavy: not shown light 1: DIQMTQSPSTLSASVGDRVTITCRASQSISSWLAWYQQKPGKAPKLLIYDASSLESGVPSRFSGSGSGTEFTLTISSLQPDDFATYYCQQYSSQPYTFGQGTKVEIKRTVAAPSVFIFPPSDEQLKSGTASVVCLLNNFYPREAKVQWKVDNALQSGNSQESVTEQDSKDSTYSLSSTLTLSKADYEKHKVYACEVTHQGLSSPVTKSFNRGEC light 2: DIQMTQSPSTLSASVGDRVTITCRASQSISSWLAWYQQKPGKAPKLLIYDASSLESGVPSRFSGSGSGTEFTLTISSLQPDDFATYYCQQNKKFPSGTFGQGTKVEIKSSASTKGPSVFPLAPSSKSTSGGTAALGCLVKDYFPEPVTVSWNSGALTSGVHTFPAVLQSSGLYSLSSVVTVPSSSLGTQTYICNVNHKPSNTKVDKKVEPKSCD"
4.22 nM,,,,binds,5.85 nM,"49B4/TnC 11C7 P329GLALA 2 + 2 (ID7215) (bispecific antibody, human IgG1, kappa, L234A L235A, huIgG1 P329G LALA; 49B4 VHCH1-Fc-(G4S)4-11C7 VHCL heavy chain, 49B4 VLCL light chain, 11C7 VLCH1 crossed light chain; also called 2 + 2 (49B4/11C7); 49B4/11C7 2 + 2) heavy: not shown light 1: DIQMTQSPSTLSASVGDRVTITCRASQSISSWLAWYQQKPGKAPKLLIYDASSLESGVPSRFSGSGSGTEFTLTISSLQPDDFATYYCQQYSSQPYTFGQGTKVEIKRTVAAPSVFIFPPSDEQLKSGTASVVCLLNNFYPREAKVQWKVDNALQSGNSQESVTEQDSKDSTYSLSSTLTLSKADYEKHKVYACEVTHQGLSSPVTKSFNRGEC light 2: SSELTQDPAVSVALGQTVRVTCQGDSLRSYYASWYQQKPGQAPVLVIYGKNNRPSGIPDRFSGSSSGNTASLTITGAQAEDEADYYCNSINSTRNEVFGGGTKLTVLSSASTKGPSVFPLAPSSKSTSGGTAALGCLVKDYFPEPVTVSWNSGALTSGVHTFPAVLQSSGLYSLSSVVTVPSSSLGTQTYICNVNHKPSNTKVDKKVEPKSCD"
